From the supplement of paper PMC7877785
± gives the uncertainty stated by the source.

Assay: self-splicing fitness, log relative to wild type (ln ratio); higher = more splicing; Tetrahymena group I intron in knt gene, E. coli kanamycin selection, DiMSum; sequences stand for … in CUCUCU…GGAGGGAAAAGUUAUCAGGCAUGCACCUGGUAGCUAGUCUUUAAACCAAUAGAUUGCAUCGGUUUAAAAGGCAAGACCGUCAAAUUGCGGGAAAGGGGUCAACAGCCGUUCAGUACCAAGUCUCAGGGGAAACUUUGAGAUGGCCUUGCAAAGGGUAUGGUAAUAAGCUGACGGACAUGGUCCUAACCACGCAGCCAAGUCCUAAGUCAACAGAUCUUCUGUUGAUAUGGAUGCAGUUCACAGACUAAAUGUCGGUCGGGGAAGAUGUAUUCUUCUCAUAAGAUAUAGUCGGACCUCUCCUUAAUGGGAGCUAGCGGAUGAAGUGAUGCAACACUGGAGCCGCUGGGAACUAAUUUGUAUGCGAAAGUAUAUUGAUUAGUUUUGGAGUACUCGUGGUCG
How it was run: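 DiMSum derived fitness as the error-weighted combination of fold changes across replicates, kanamycin versus no kanamycin, normalised to wild type. E. coli BL21(DE3) held the library, which randomised all eight P1ex-region intron nucleotides within the knt kanamycin-resistance gene on pET-22b(+). Six replicate transformations grew overnight at 37°C or 30°C on LB agar with or without 25 μg/mL kanamycin, also containing 100 μg/mL carbenicillin, 50 μM IPTG and 0.2% rhamnose, and pooled colonies were amplicon-sequenced on an Illumina HiSeq 2500.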

| Sequence | self-splicing fitness (ln) (30 °C) | self-splicing fitness (ln) (37 °C) |
| --- | --- | --- |
| GGACAGCAAUAUUACGGGGA | -2.72 ± 0.16 | -3.05 ± 0.26 |
| GGACAGCAAUAUUACGGGUA | -2.33 ± 0.11 | -1.67 ± 0.093 |
| GGACAGCAAUAUUACGGUGA | -0.838 ± 0.063 | -0.167 ± 0.071 |
| GGACAGCAAUAUUACGGUUC | -3.64 ± 0.15 | -1.82 ± 0.14 |
| GGACAGCAAUAUUACGUGGG | -2.49 ± 0.12 | -2.28 ± 0.12 |
| GGACAGCAAUAUUACGUUCG | -0.223 ± 0.076 | 0.0323 ± 0.095 |
| GGACAGCAAUAUUACGUUGG | -1.69 ± 0.088 | -0.723 ± 0.11 |
| GGAGAGCAAUAUUACGAAAC | -2.48 ± 0.29 | -1.36 ± 0.47 |
| GGAGAGCAAUAUUACGACCU | -1.9 ± 0.24 | -0.666 ± 0.26 |
| GGAGAGCAAUAUUACGACGU | -1.29 ± 0.2 | -0.823 ± 0.25 |
| GGAGAGCAAUAUUACGAGAG | -3.07 ± 0.25 | -2.31 ± 0.33 |
| GGAGAGCAAUAUUACGAGGC | -2.83 ± 0.23 | -1.95 ± 0.37 |
| GGAGAGCAAUAUUACGCACU | -2.77 ± 0.49 | -1.94 ± 0.46 |
| GGAGAGCAAUAUUACGCGCU | -2.69 ± 0.25 | -1.67 ± 0.28 |
| GGAGAGCAAUAUUACGCGGU | -3.77 ± 0.47 |  |
| GGAGAGCAAUAUUACGCUAG | -1.3 ± 0.36 | -0.901 ± 0.42 |
| GGAGAGCAAUAUUACGGGGA | -3.31 ± 0.49 |  |
| GGAGAGCAAUAUUACGGGUA | -3.5 ± 0.28 | -2.62 ± 0.2 |
| GGAGAGCAAUAUUACGGUAC | -3.27 ± 0.5 | -2.07 ± 0.24 |
| GGAGAGCAAUAUUACGUAAU |  | -0.814 ± 0.2 |
| GGAGAGCAAUAUUACGUAGC |  | -0.906 ± 0.37 |
| GGAGAGCAAUAUUACGUCUG | -1.13 ± 0.2 | -0.491 ± 0.25 |
| GGAGAGCAAUAUUACGUGCU | -2.88 ± 0.27 |  |
| GGAGAGCAAUAUUACGUUUU | -3.36 ± 0.23 | -1.15 ± 0.3 |
| GGAUAGCAAUAUUACGAUCC | -1.95 ± 0.45 |  |

| Sequence | self-splicing fitness (ln) (30 °C) | self-splicing fitness (ln) (37 °C) |
| --- | --- | --- |
| GGAUAGCAAUAUUACGCAAG | -1.28 ± 0.27 | -0.103 ± 0.34 |
| GGAUAGCAAUAUUACGCACG | -1.12 ± 0.16 | -0.963 ± 0.15 |
| GGAUAGCAAUAUUACGGACC | -0.822 ± 0.22 | -0.154 ± 0.25 |
| GGAUAGCAAUAUUACGGGGC | -3.69 ± 0.23 | -1.95 ± 0.16 |
| GGAUAGCAAUAUUACGGUCA | -0.171 ± 0.081 | -0.0595 ± 0.11 |
| GGAUAGCAAUAUUACGGUCC |  | -2.68 ± 0.48 |
| GGAUAGCAAUAUUACGGUUA | -0.755 ± 0.2 | 0.0186 ± 0.17 |
| GGAUAGCAAUAUUACGUAAG | -1.87 ± 0.17 | -0.386 ± 0.2 |
| GGAUAGCAAUAUUACGUGCG | -0.974 ± 0.094 | -0.046 ± 0.12 |
| GGAUAGCAAUAUUACGUUGC | -4.63 ± 0.36 | -2.2 ± 0.28 |
| GGAUAGCAAUAUUACGUUUU | -1.33 ± 0.11 | -1.62 ± 0.14 |
| GGCAAGCAAUAUUACGAAAG | -2.97 ± 0.28 |  |
| GGCAAGCAAUAUUACGAGCC | -2.21 ± 0.43 | -1.52 ± 0.44 |
| GGCAAGCAAUAUUACGAGCG | -0.697 ± 0.073 | 0.427 ± 0.097 |
| GGCAAGCAAUAUUACGAGUA | -1.52 ± 0.15 | -0.685 ± 0.13 |
| GGCAAGCAAUAUUACGAGUG | -1.1 ± 0.069 | -0.88 ± 0.071 |
| GGCAAGCAAUAUUACGAUUC | 0.184 ± 0.062 | 0.142 ± 0.091 |
| GGCAAGCAAUAUUACGCACA | -0.684 ± 0.09 | 0.564 ± 0.11 |
| GGCAAGCAAUAUUACGCCCC |  | -1.27 ± 0.35 |
| GGCAAGCAAUAUUACGCGCA | 0.145 ± 0.077 | 0.461 ± 0.11 |
| GGCAAGCAAUAUUACGCUUG | -3.26 ± 0.2 | -3.49 ± 0.34 |
| GGCAAGCAAUAUUACGGAAU | -0.693 ± 0.075 | -0.506 ± 0.1 |
| GGCAAGCAAUAUUACGGCAC | -0.671 ± 0.071 | 0.369 ± 0.12 |
| GGCAAGCAAUAUUACGGCAG | -2.32 ± 0.14 | -1.15 ± 0.15 |
| GGCAAGCAAUAUUACGGCAU | -0.207 ± 0.043 | 0.531 ± 0.06 |

| Sequence | self-splicing fitness (ln) (30 °C) | self-splicing fitness (ln) (37 °C) |
| --- | --- | --- |
| GGCAAGCAAUAUUACGGUAA | -1.28 ± 0.097 | 0.108 ± 0.094 |
| GGCAAGCAAUAUUACGGUAU | -1.17 ± 0.068 | -0.119 ± 0.077 |
| GGCAAGCAAUAUUACGGUUG | -1.16 ± 0.063 | -0.62 ± 0.083 |
| GGCAAGCAAUAUUACGUAGA | 0.226 ± 0.077 | 0.582 ± 0.11 |
| GGCAAGCAAUAUUACGUAGU | -1.52 ± 0.098 | -0.197 ± 0.11 |
| GGCAAGCAAUAUUACGUCCG | -3.73 ± 0.27 | -1.61 ± 0.2 |
| GGCAAGCAAUAUUACGUGAA | -0.509 ± 0.091 | 0.184 ± 0.11 |
| GGCAAGCAAUAUUACGUUCU | -0.68 ± 0.089 | 0.436 ± 0.11 |
| GGCAAGCAAUAUUACGUUUC | -0.714 ± 0.1 | -0.0706 ± 0.14 |
| GGCCAGCAAUAUUACGAAAG | -4.21 ± 0.37 | -2.71 ± 0.41 |
| GGCCAGCAAUAUUACGAAGA | -3.15 ± 0.22 | -2.85 ± 0.27 |
| GGCCAGCAAUAUUACGAAGU | -2.41 ± 0.39 | -1.26 ± 0.26 |
| GGCCAGCAAUAUUACGACGA | -2.9 ± 0.16 | -1.98 ± 0.12 |
| GGCCAGCAAUAUUACGAGGG | -3.58 ± 0.16 | -1.75 ± 0.17 |
| GGCCAGCAAUAUUACGCACA | -0.344 ± 0.16 | -0.177 ± 0.17 |
| GGCCAGCAAUAUUACGGGAC | -2.68 ± 0.12 | -1.21 ± 0.15 |
| GGCCAGCAAUAUUACGGGAU | -1.73 ± 0.097 | -0.354 ± 0.1 |
| GGCCAGCAAUAUUACGGGUU | -3.08 ± 0.17 | -2.06 ± 0.19 |
| GGCCAGCAAUAUUACGGUCA | -0.963 ± 0.1 | -0.389 ± 0.1 |
| GGCCAGCAAUAUUACGGUCU | -2.82 ± 0.15 | -2.78 ± 0.3 |
| GGCCAGCAAUAUUACGUACC | -0.685 ± 0.13 | 1.43 ± 0.17 |
| GGCCAGCAAUAUUACGUCAU | -1.7 ± 0.063 | -1.27 ± 0.08 |
| GGCCAGCAAUAUUACGUGUA | -2.41 ± 0.083 | -1.51 ± 0.1 |
| GGCCAGCAAUAUUACGUUAG | -3.38 ± 0.26 | -2.82 ± 0.34 |
| GGCCAGCAAUAUUACGUUCA | -3.23 ± 0.23 | -0.905 ± 0.19 |

| Sequence | self-splicing fitness (ln) (30 °C) | self-splicing fitness (ln) (37 °C) |
| --- | --- | --- |
| GGCGAGCAAUAUUACGAAAG | -3.27 ± 0.3 | -2.77 ± 0.24 |
| GGCGAGCAAUAUUACGACCG | -0.74 ± 0.28 | -0.371 ± 0.26 |
| GGCGAGCAAUAUUACGACGC | -1.89 ± 0.29 |  |
| GGCGAGCAAUAUUACGAGGG | -0.768 ± 0.24 |  |
| GGCGAGCAAUAUUACGAUCU | -0.834 ± 0.12 | 0.229 ± 0.14 |
| GGCGAGCAAUAUUACGCAAA | -2.13 ± 0.19 | -2.01 ± 0.14 |
| GGCGAGCAAUAUUACGCAAU | -2.22 ± 0.12 | -0.788 ± 0.13 |
| GGCGAGCAAUAUUACGCACU | -2.83 ± 0.34 | -1.07 ± 0.28 |
| GGCGAGCAAUAUUACGCCUC | -1.67 ± 0.33 |  |
| GGCGAGCAAUAUUACGCUAU | -2.55 ± 0.21 | -1.11 ± 0.18 |
| GGCGAGCAAUAUUACGGACU | -0.419 ± 0.077 | -0.219 ± 0.13 |
| GGCGAGCAAUAUUACGGAGG | -2.52 ± 0.34 | -1.9 ± 0.45 |
| GGCGAGCAAUAUUACGGCGG | -2 ± 0.39 | -1.28 ± 0.37 |
| GGCGAGCAAUAUUACGGCGU | -2.49 ± 0.21 | -1.1 ± 0.2 |
| GGCGAGCAAUAUUACGGGCU | -2.07 ± 0.36 | -1.23 ± 0.28 |
| GGCGAGCAAUAUUACGGUGG | -3.31 ± 0.24 | -2.07 ± 0.22 |
| GGCGAGCAAUAUUACGUAAC | -2.52 ± 0.19 | -0.781 ± 0.13 |
| GGCGAGCAAUAUUACGUCCA | -1.97 ± 0.14 | -1.02 ± 0.12 |
| GGCGAGCAAUAUUACGUGGG | -3.57 ± 0.44 | -1.44 ± 0.27 |
| GGCGAGCAAUAUUACGUUAU | -3.17 ± 0.17 | -1.3 ± 0.16 |
| GGCUAGCAAUAUUACGAAAA | -1.06 ± 0.24 | -1.33 ± 0.27 |
| GGCUAGCAAUAUUACGAAAC |  | -0.972 ± 0.4 |
| GGCUAGCAAUAUUACGAAUA | -0.326 ± 0.37 | -1.7 ± 0.28 |
| GGCUAGCAAUAUUACGAAUG | -2.26 ± 0.14 | -1.01 ± 0.14 |
